Patent publication US20260201391
Where two headings read alike, the source gives them in different places.

System: thrombin

Substance	binding signal (fold higher Kd than TBV-08) (Kd of TBV-08 stated as 300-fold lower than Bock-15)	binding signal (fold higher Kd than TBV-08) (Kd of TBV-08 stated as 200-fold lower than Tasset-29)
Bock-15	300	–
Tasset-29	–	200
